Measured values: publication doi:10.1101/2022.11.11.516191
Blank lines part the entries; values can stand above or below the binder they belong to.

What was measured:
Assay in all cases: SEC
Conditions in all cases: remark: other sources report otherwise
[1] = target: T1, 14-3-3 β 130nY (human), P31946
T1 chain: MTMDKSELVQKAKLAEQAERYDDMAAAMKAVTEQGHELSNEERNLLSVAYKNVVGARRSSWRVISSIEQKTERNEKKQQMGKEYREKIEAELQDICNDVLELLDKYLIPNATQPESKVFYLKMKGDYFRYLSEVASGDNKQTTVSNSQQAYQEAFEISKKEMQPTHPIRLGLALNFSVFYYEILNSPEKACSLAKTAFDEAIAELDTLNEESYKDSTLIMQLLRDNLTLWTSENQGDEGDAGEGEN

[2] = target: T2, 14-3-3 β wild-type (human), P31946
T2 chain: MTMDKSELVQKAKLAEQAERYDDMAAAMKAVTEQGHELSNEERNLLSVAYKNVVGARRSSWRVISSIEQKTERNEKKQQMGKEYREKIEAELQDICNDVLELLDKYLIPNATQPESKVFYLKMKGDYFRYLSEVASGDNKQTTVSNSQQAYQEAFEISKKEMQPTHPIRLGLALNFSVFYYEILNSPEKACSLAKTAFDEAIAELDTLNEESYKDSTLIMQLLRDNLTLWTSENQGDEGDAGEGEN

[3] = target: T3, 14-3-3 β 213nY (human), P31946
T3 chain: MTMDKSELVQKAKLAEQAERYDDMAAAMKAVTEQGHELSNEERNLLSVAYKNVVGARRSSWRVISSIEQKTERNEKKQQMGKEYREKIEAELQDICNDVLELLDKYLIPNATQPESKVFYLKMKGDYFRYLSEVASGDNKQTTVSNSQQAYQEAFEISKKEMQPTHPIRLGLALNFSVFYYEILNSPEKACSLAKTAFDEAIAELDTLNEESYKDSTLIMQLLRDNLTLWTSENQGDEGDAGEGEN

stoichiometry N [1]: 2
B1: 14-3-3 β 130nY, P31946 1-246 (natural protein)
chain: MTMDKSELVQKAKLAEQAERYDDMAAAMKAVTEQGHELSNEERNLLSVAYKNVVGARRSSWRVISSIEQKTERNEKKQQMGKEYREKIEAELQDICNDVLELLDKYLIPNATQPESKVFYLKMKGDYFRYLSEVASGDNKQTTVSNSQQAYQEAFEISKKEMQPTHPIRLGLALNFSVFYYEILNSPEKACSLAKTAFDEAIAELDTLNEESYKDSTLIMQLLRDNLTLWTSENQGDEGDAGEGEN
modifications: here or on the partner: 3-nitro-tyrosine at 130 (β-isoform numbering); 3-nitro-tyrosine at 130 (β-isoform numbering)

stoichiometry N [2]: 2
B2: 14-3-3 β wild-type, P31946 1-246 (natural protein)
chain: MTMDKSELVQKAKLAEQAERYDDMAAAMKAVTEQGHELSNEERNLLSVAYKNVVGARRSSWRVISSIEQKTERNEKKQQMGKEYREKIEAELQDICNDVLELLDKYLIPNATQPESKVFYLKMKGDYFRYLSEVASGDNKQTTVSNSQQAYQEAFEISKKEMQPTHPIRLGLALNFSVFYYEILNSPEKACSLAKTAFDEAIAELDTLNEESYKDSTLIMQLLRDNLTLWTSENQGDEGDAGEGEN

stoichiometry N [3]: 2
B3: 14-3-3 β 213nY, P31946 1-246 (natural protein)
chain: MTMDKSELVQKAKLAEQAERYDDMAAAMKAVTEQGHELSNEERNLLSVAYKNVVGARRSSWRVISSIEQKTERNEKKQQMGKEYREKIEAELQDICNDVLELLDKYLIPNATQPESKVFYLKMKGDYFRYLSEVASGDNKQTTVSNSQQAYQEAFEISKKEMQPTHPIRLGLALNFSVFYYEILNSPEKACSLAKTAFDEAIAELDTLNEESYKDSTLIMQLLRDNLTLWTSENQGDEGDAGEGEN
modifications: here or on the partner: 3-nitro-tyrosine at 213 (β-isoform numbering); 3-nitro-tyrosine at 213 (β-isoform numbering)
